B1: Zygote defective protein 9 (Caenorhabditis elegans), G5EEM5 (parent)
chain: MSNWDYLDEVDILPKLPPNFDELRESKKWQERKEALEALLKVLTDNERLSTKASYAELIGHLQMVLAKDANINCQALAAKCIGKFATGLRAKFSSFAGPLLPVIFEKMKEKKPMLREPLVDCSNEVGRTMQSLETGQEDILAALAKPNPQIKQQTALFVARQLDLVVPAKQPKGFIKAVVPVFGKLTGDADQDVREASLQGLGAVQRIIGDKNVKNLLGDASSDEGKMKKIGEYAEKSTASFAEEQAKNAPPVAPTSSTPSASAASGDPSGGTATAVVSSGAPVAEADPWDFLDAFDVLSKMPDGFDTNIESKKWQERKEALEGLLQLITANPKLDPKANYGALVERLQKVLEKDANINVAALAANCITGIANGLRTKFQPFAVSVTPIIFEKFKEKKPTLRDPLVACIDAVVATTNLEAVGEIVLAALGKPNPSIKTQTDLFLQRCFMKLNSQTMPKKTLKTLIPSLIKHSGDSDSEVREASYAAMGAMMRAIGEKPSLQLLADIASDNLKMSKIKEFHQKALDEAGPAEIAEMVKSIHKADAPPAAAPPKKTAPPKKQPEDEEVVEEEDEPLKPPPGDKKKKVPVKENEENEPPVVAPKAELLLSDNEDKKQRIKEEKQLKLVKWNFQAPTDEHISQLQTLLGNQAKVSLMSQLFHKDFKQHLAALDSLVRLADTSPRSLLSNSDLLLKWCTLRFFETNPAALIKVLELCKVIVELIRDTETPMSQEEVSAFVPYLLLKTGEAKDNMRTSVRDIVNVLSDVVGPLKMTPMLLDALKSKNARQRSECLLVIEYYITNAGISPLKSLSVEKTVAPFVGDKDVNVRNAAINVLVACFKFEGDQMWKAAGRMADKDKSLVEERIKRTGVKPGSGVVTSPPTGGPKILVPQQQGSVVRRPASRSRTREPEPEEVQSDTFTIRQDTMPPKTSSRYALRDDVFSSAMGRLDGTQVITPPQPVNGWSNNTFQMKRTNSSSSISSIDTSDQIQRSINNISSSLADVAQDAMFQVTYVLNQPEQRHLVDRRADLVFRASAAQLDLVIEEFNAGRDVSGTMDACTQMLFILMGGVETEHGLEPLNASPDTVKAIISSVLRCIIQIGNTESGYGMARSLNRLAMRLIYRVELSNLLCGLILAMTESLQMNTGITELVSKLSSKWCDELEKRRAQLRASDIVDSFNAFYVCALTELKMDISDSHILIVDNYLERVILQQGDVVLDAARRLSRPHMHLTSMINKILQMMRERKIDPIMPGTLEARMPQEDEAVVVRSGVQVSIDNILRDTSMAVKHIEQLNILIASSDRSWNEYMEYLKNNPMGELIKELVGECSRKKRIDFNLSHVVKSSMAVFKAMAATGPVQEEGRITPTDINRMDTMIVGTPLSRGDATITRARGNMIRPKRTTLSRDQMANIRHTLDRVKNH
partner: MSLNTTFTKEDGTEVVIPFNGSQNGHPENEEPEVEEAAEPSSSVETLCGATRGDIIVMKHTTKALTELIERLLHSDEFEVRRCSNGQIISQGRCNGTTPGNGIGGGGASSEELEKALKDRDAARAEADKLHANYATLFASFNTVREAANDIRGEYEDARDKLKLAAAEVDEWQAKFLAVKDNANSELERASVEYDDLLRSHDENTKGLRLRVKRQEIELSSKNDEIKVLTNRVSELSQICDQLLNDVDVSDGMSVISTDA
B2: Transforming acid coiled-coil-containing protein 1 (Caenorhabditis elegans), G5ECG0 (parent)
chain: B1 partner
partner: B1 chain

Variants of: B1
Settings: with tacc1_caeel tac-1, G5ECG0

Variant	effect of a mutation on the interaction
I862K	decreasing interaction
E1317K	decreasing interaction

Variants of: B2
Settings: with zyg9_caeel zyg-9, G5EEM5

Variant	effect of a mutation on the interaction
MSLNTTFTKEDGTEVVIPFNGSQNGHPENEEPEVEEAAEPSSSVETLCGATRGDIIVMKHTTKALTELIERLLHSDEFEVRRCSNGQIISQGRCNGTTPGNGIGGGGASSEELEKALKDRDAARAEADKLHANYATLFASFNTVREAANDIRGEYEDARDKLKLAAAEVDEWQAKFLAVKDNANSELERASVEYDDLLRSHDENTKGLRLRVKRQEIELSSKNDEIKVFTNRVSELSQICDQLLNDVDVSDGMSVISTDA [L229F]	decreasing interaction

Reference: IntAct's records for PubMed 17666432
